Test results taken from patent US20220389465A1, “METHODS OF REDUCING BIURET IN UREA COMPOSITIONS” (Regents of the University of Minnesota, priority 2019, published 2022).

Test system: T1, NC(=O)NC(N)=O
T1 construct: six-histidine tag (C); made in house; host or cells: Escherichia coli BL21(DE3)
Test: Inhibition of biuret hydrolase by urea, kinetic constants
Type: biochemical

Sequence of biuret hydrolase (Rhizobium johnstonii 3841) (chain, as listed by the source): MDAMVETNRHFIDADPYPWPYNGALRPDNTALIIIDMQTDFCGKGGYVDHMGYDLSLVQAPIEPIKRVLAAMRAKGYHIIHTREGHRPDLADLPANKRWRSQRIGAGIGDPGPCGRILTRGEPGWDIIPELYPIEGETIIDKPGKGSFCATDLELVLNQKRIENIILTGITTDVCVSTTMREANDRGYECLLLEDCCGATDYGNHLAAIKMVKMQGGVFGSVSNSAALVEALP

Question: “biuret hydrolase (Rhizobium johnstonii 3841)” was tested. Which Km did it give?
Answer: The Km was 23 µM.
